{"source": "paper PMC13440416", "system": "LexA (Escherichia coli)", "assay": "EMSA", "data": [{"substance": "YNN1-LexO naked DNA", "values": [{"measurement": "Kd", "value": "< 5", "unit": "nM"}]}]}
